Data as given in patent publication US20230212319A1, “NOVEL ANTIGEN BINDING DOMAINS AND SYNTHETIC ANTIGEN RECEPTORS INCORPORATING THE SAME” (University of Southern California, priority 2020, published 2023).

Tests used:
Type in all cases: cell-based
[1] = tested on: RAJI-CD19-KO cells; assay: JNG assay, co-culture with RAJI-CD19-KO cells; settings: co-culture with Raji-CD19-KO
Outline: (§1)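 Jurkat-NFAT-GFP (JNG) cells stably expressing SAR constructs via lentiviral transduction and puromycin/blasticidin selection were cocultured with target cells at E:T ~1:2 for ~4–18 h. NFAT-driven GFP was measured by FACS versus parental JNG cells; scores +/- to 5+ denote ~5–50% GFP-positive cells.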

[2] = tested on: RAJI cells; assay: JNG assay, co-culture with RAJI cells; settings: JNG cells expressing construct, co-culture with Raji
Outline: as §1

[3] = tested on: RS;411; assay: JNG assay, co-culture with RS;411 cells; settings: co-culture with RS411
Outline: as §1

[4] = tested on: U-87 MG; assay: JNG NFAT-GFP assay, co-culture with U-87 MG cells

B1: 22169 (protein)
chain: MALPVTALLLPLALLLHAARPEVQLVESGGGLVQPGGSLRLSCAASGFASDYYIIGWFRQAPGKEREGVSCISSRYANTNYADSVKGRFTISRDNAKNTVYLQMNSLKPEDTAVYYCAADTRRYTCPDIATMHRNFDSWGQGTLVTVSSGTGGGGSGGGGSGGGGSEFDIQMTQSPSSLSASVGDRVTITCKASDHINNWLAWYQQKPGQAPKLLIYGATTLETGVPSRFSGSGSGTDYTLTISSLQPEDFATYYCQQSWNTPWTFGQGTKLEIKRLEIQNPDPAVYQLRDSKSSDKSVCLFTDFDSQTNVSQSKDSDVYITDKCVLDMRSMDFKSNSAVAWSNKSDFACANAFNNSIIPEDTFFPSSDVPCDVKLVEKSFETDTNLNFQNLSVIGFRILLLKVAGFNLLMTLRLWSSRAKRSGSGVKQTLNFDLLKLAGDVESNPGPTSATMDWIWRILFLVGAATGAHSGPQVQLQESGGGLAQAGGSLRLSCAASGRTFSMGWFRQAPGKEREFVAAITYSGGSPYYASSVRGRFTISRDNAKNTVYLQMNSLKPEDTAVYYCAANPTYGSDWNAENWGQGTQVTVSSGSGGGGSGGGGSGGGGSFEQVQLQQPGAELVKPGASVKMSCKASGYAFSSYWINWMKQKPGQGLEWIGQIYPGDGDTNYNGKFKGRATLTADTSSSTAYMQLSSLTSEDSAVYFCARSITTVVGCAMDYWGQGTSVTVSSTREDLKNVFPPEVAVFEPSKAEIAHTQKATLVCLATGFYPDHVELSWWVNGKEVHSGVCTDPQPLKEQPALNDSRYCLSSRLRVSATFWQNPRNHFRCQVQFYGLSENDEWTQDRAKPVTQIVSAEAWGRADCGITSASYHQGVLSATILYEILLGKATLYAVLVSALVLMAMVKRKDSRGRAKRSGSGATNFSLLKQAGDVEENPGPSRGHMTEYKPTVRLATRDDVPRAVRTLAAAFADYPATRHTVDPDRHIERVTELQELFLTRVGLDIGKVWVADDGAAVAVWTTPESVEAGAVFAEIGPRMAELSGSRLAAQQQMEGLLAPHRPKEPAWFLATVGVSPDHQGKGLGSAVVLPGVEAAERAGVPAFLETSAPRNLPFYERLGFTVTADVEVPEGPRTWCMTRKPGA
For B1, the “NFAT-GFP ASSAY: Raji-CD19-KO” value [1] was 4+ (refer to approximately 5%, 10%, 20%, 30%, 40% and 50% GFP positive cells), the “NFAT-GFP ASSAY: Raji” value [2] was 3+ (refer to approximately 5%, 10%, 20%, 30%, 40% and 50% GFP positive cells) and the “NFAT-GFP ASSAY: RS411” value [3] was 2+ (refer to approximately 5%, 10%, 20%, 30%, 40% and 50% GFP positive cells). For the same molecule, the “NFAT-GFP ASSAY: U-87 MG” value [4] was 3+ (refer to approximately 5%, 10%, 20%, 30%, 40% and 50% GFP positive cells).
